Data from US20080032921A1.

Legend:
HLA-DR DRB1*0101 (human) [1] = assay: competition with 125I-labelled peptide for purified HLA-DR
HLA-DR DRB1*0301 (human) [2] = assay: as above
HLA-DR DRB1*0401 (human) [3] = assay: as above
HLA-DR DRB1*0404 (human) [4] = assay: as above
HLA-DR DRB1*0405 (human) [5] = assay: as above
HLA-DR DRB1*0701 (human) [6] = assay: as above
HLA-DR DRB1*0802 (human) [7] = assay: as above
HLA-DR DRB1*0901 (human) = assay: as above
HLA-DR DRB1*1101 (human) [8] = assay: as above
HLA-DR DRB1*1302 (human) [9] = assay: as above
HLA-DR DRB1*1501 (human) [10] = assay: as above
HLA-DR DRB4*0101 (human) [11] = assay: as above
HLA-DR DRB5*0101 (human) [12] = assay: as above
HLA-DR DRB1*0101 (human) [13] = assay: competition with 125I-labeled reference peptide, purified HLA
HLA-DR DRB1*0301 (human) [14] = assay: as above
HLA-DR DRB1*0401 (human) [15] = assay: as above
HLA-DR DRB1*0404 (human) [16] = assay: as above
HLA-DR DRB1*0405 (human) [17] = assay: as above
HLA-DR DRB1*0701 (human) [18] = assay: as above
HLA-DR DRB1*0802 (human) [19] = assay: as above
HLA-DR DRB1*1101 (human) [20] = assay: as above
HLA-DR DRB1*1302 (human) [21] = assay: as above
HLA-DR DRB1*1501 (human) [22] = assay: as above
HLA-DR DRB4*0101 (human) [23] = assay: as above
HLA-DR DRB5*0101 (human) [24] = assay: as above
[25] = target: purified HLA DRB1*0101 (human); assay: competition with 125I-labelled reference peptide, purified HLA
[26] = target: purified HLA DRB1*0301 (human); assay: as above
[27] = target: purified HLA DRB1*0401 (human); assay: as above
[28] = target: purified HLA DRB1*0404 (human); assay: as above
[29] = target: purified HLA DRB1*0405 (human); assay: as above
[30] = target: purified HLA DRB1*0701 (human); assay: as above
[31] = target: purified HLA DRB1*1101 (human); assay: as above
[32] = target: purified HLA DRB1*1302 (human); assay: as above
[33] = target: purified HLA DRB1*1501 (human); assay: as above
[34] = target: purified HLA DRB4*0101 (human); assay: as above
[35] = target: purified HLA DRB5*0101 (human); assay: as above

## RREVHIYYLEKANKI (modifications not checked) [Flu.PA.127]
HLA-DR DRB1*0101 (human) [1]
  IC50: 34 nM
HLA-DR DRB1*0301 (human) [2]
  IC50: > 10000 nM
HLA-DR DRB1*0401 (human) [3]
  IC50: 63 nM
HLA-DR DRB1*0404 (human) [4]
  IC50: 181 nM
HLA-DR DRB1*0405 (human) [5]
  IC50: 1490 nM
HLA-DR DRB1*0701 (human) [6]
  IC50: 23 nM
HLA-DR DRB1*0802 (human) [7]
  IC50: 95 nM
HLA-DR DRB1*0901 (human)
  IC50: 851 nM
HLA-DR DRB1*1101 (human) [8]
  IC50: 96 nM
HLA-DR DRB1*1302 (human) [9]
  IC50: 150 nM
HLA-DR DRB1*1501 (human) [10]
  IC50: 4.5 nM
HLA-DR DRB4*0101 (human) [11]
  IC50: 5 nM
HLA-DR DRB5*0101 (human) [12]
  IC50: 25 nM
HLA-DR DRB1*0101 (human) [13]
  IC50: 34 nM
HLA-DR DRB1*0301 (human) [14]
  IC50: > 10000 nM
HLA-DR DRB1*0401 (human) [15]
  IC50: 63 nM
HLA-DR DRB1*0404 (human) [16]
  IC50: 181 nM
HLA-DR DRB1*0405 (human) [17]
  IC50: 1490 nM
HLA-DR DRB1*0701 (human) [18]
  IC50: 23 nM
HLA-DR DRB1*0802 (human) [19]
  IC50: 95 nM
HLA-DR DRB1*1101 (human) [20]
  IC50: 96 nM
HLA-DR DRB1*1302 (human) [21]
  IC50: 150 nM
HLA-DR DRB1*1501 (human) [22]
  IC50: 4.5 nM
HLA-DR DRB4*0101 (human) [23]
  IC50: 5 nM
HLA-DR DRB5*0101 (human) [24]
  IC50: 25 nM

## AKSMEYDAVATTHSW (modifications not checked) [Flu.PB1.655]
[25]
  IC50: 202 nM
[26]
  IC50: 909 nM
[27]
  IC50: 53 nM
[28]
  IC50: 646 nM
[29]
  IC50: 626 nM
[30]
  IC50: 292 nM
[31]
  IC50: 6620 nM
[32]
  IC50: 2180 nM
[33]
  IC50: 1990 nM
[34]
  IC50: 6340 nM
[35]
  IC50: 3530 nM
